Tests used:
UBQLN2 UBL (26–103) = UBQLN2 UBL (26–103) (UniProt Q9UHD9 26-103); test: NMR titration
UBQLN2 = UBQLN2 (UniProt Q9UHD9 1-624); test: recruitment to biomolecular condensates in vitro

UBQLN2 UBL (26–103), sequence (Q9UHD9 26-103): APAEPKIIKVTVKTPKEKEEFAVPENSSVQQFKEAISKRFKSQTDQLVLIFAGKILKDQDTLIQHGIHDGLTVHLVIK

binding result (UBQLN2 UBL (26–103))	binding result (UBQLN2)	Binder
binds		UBQLN1 (514–589, F547Y) (domain or fragment, UniProt Q9UMX0 514-589, looked up) TAGTTEPGHQQFIQQMLQALAGVNPQLQNPEVRYQQQLEQLSAMGFLNREANLQALIATGGDINAAIERLLGSQPS
	binds	AZUL-mEGFP (E6AP isoform II 24–87 with a C-terminal mEGFP) (domain or fragment, UniProt Q05086 24-87, looked up) MKRAAAKHLIERYYHQLTEGCGNEACTNEFCASCPTFLRMDNNAAAIKALELYKINAKLCDPHP

Reference: paper PMC10081965 (Structure (London, England : 1993), 2023)
